Assay results from publication PMC8115694, “Distinct axial and lateral interactions within homologous filaments dictate the signaling specificity and order of the AIM2-ASC inflammasome” (Nature Communications, 2021).

B1: AIM2^PYD (residues 1-94) S94C, fluorophore-labelled (domain or fragment, human, UniProt O14862 1-94, looked up)
chain: MESKYKEILLLTGLDNITDEELDRFKFFLSDEFNIATGKLHTANRIQVATLMIQNAGAVSAVMKTIRIFQKLNYMLLAKRLQEEKEKVDKQYKC
modifications: fluorophore label (Alexa488 or Dylight550; FRET donor or acceptor); S94C for fluorophore labeling
notes: AIM2, human, pyrin domain, residues 1-94; Polymerisation is triggered by cleaving MBP with TEVp; the protein stands as nascent monomer or as preassembled filament; also called MBP-AIM2^PYD; source: MBP cleaved with TEVp in the assay; not shown: MBP, N-terminal, cleaved
B2: AIM2^PYD filament construct with ~20 a.a. of the unstructured linker (residues 1-117), untagged (domain or fragment, human, UniProt O14862 1-117, looked up)
chain: MESKYKEILLLTGLDNITDEELDRFKFFLSDEFNIATGKLHTANRIQVATLMIQNAGAVSAVMKTIRIFQKLNYMLLAKRLQEEKEKVDKQYKSVTKPKPLSQAEMSPAASAAIRND
notes: AIM2 (absent in melanoma 2), human, residues 1-117: PYD plus ~20 a.a. of the unstructured linker; Helical filament; 2.75 uM protein cleaved for 30 min with 6 uM TEVp before freezing; also called AIM2^IRND; source: MBP cleaved with TEVp; not shown: MBP, N-terminal, cleaved

Key:
[1] = molecular target: the molecule itself; experiment: confocal fluorescence microscopy of fluor-labelled recombinant filaments; two differentially labelled (Alexa488, Dylight550) MBP-tagged PYD populations mixed at 1:1 ratio (1 uM each), polymerisation triggered by cleaving MBP with TEVp
[2] = molecular target: the molecule itself; experiment: cryo-EM structure; helical reconstruction of the untagged AIM2 (1-117) filament; 2.75 uM protein cleaved for 30 min with 6 uM TEVp

Protein | binding result [1] | binding result [2]
B1 | binds | –
B2 | – | binds
